Measured values reported in PMC9699129.

What was measured:
[1] = molecular target: MsFcγRIα-EGFP (largemouth bass FcγRIα fused to EGFP, expressed on transfected HEK293 cells) (largemouth bass (Micropterus salmoides)); test: flow cytometry on cells; MsFcγRIα-EGFP-transfected HEK293 cells in serum-free DMEM, 20 μg/mL purified MsIgM added for 6 h at 37 °C; bound MsIgM detected with anti-MsIgM mAb MM06H and Alexa Fluor 647 goat anti-mouse IgG; n = 3
[2] = molecular target: MsFcγRIα-EGFP (largemouth bass FcγRIα fused to EGFP, expressed on transfected HEK293 cells) (largemouth bass (Micropterus salmoides)); test: flow cytometry on cells; MsFcγRIα-EGFP-transfected HEK293 cells in serum-free DMEM, 20 μg/mL purified MsIgM added for 24 h at 37 °C; bound MsIgM detected with anti-MsIgM mAb MM06H and Alexa Fluor 647 goat anti-mouse IgG; n = 3
[3] = molecular target: MsFcγRIα-EGFP (largemouth bass FcγRIα fused to EGFP, expressed on transfected HEK293 cells) (largemouth bass (Micropterus salmoides)); test: flow cytometry on cells; MsFcγRIα-EGFP-transfected HEK293 cells in serum-free DMEM, 20 μg/mL purified MsIgM added for 12 h at 37 °C; bound MsIgM detected with anti-MsIgM mAb MM06H and Alexa Fluor 647 goat anti-mouse IgG; n = 3

- percent of MsFcγRIα-expressing HEK293 cells with MsIgM after 6 h incubation [1]: 19.7%
- percent of MsFcγRIα-expressing HEK293 cells with MsIgM after 24 h incubation [2]: 40.3%
- percent of MsFcγRIα-expressing HEK293 cells with MsIgM after 12 h incubation [3]: 26.3%
Substance: largemouth bass IgM (MsIgM), purified from serum (natural protein)
